“And” between values parts separate entries of the source, which are not always exact repeats. Equal entries are not always repeated.
Experiments:
FcRn = FcRn (UniProt P55899); assay: SPR Biacore 8K; IgG captured on biotinylated CD3 peptide SA chip; 1 µM FcRn, pH 6.0
C1q [1] = biological target: C1q (UniProt P02745); assay: SPR Biacore 8K; IgG captured on biotinylated CD3 peptide SA chip; 1 µM C1q, pH 7.4
FcγR on THP-1 cells = assay: flow cytometry; 100 nM antibody pre-complexed with 10 nM biotinylated CD3 peptide, on THP-1 cells
C1q [2] = biological target: C1q (UniProt P02745); assay: flow cytometry; antibody on CD3 peptide-coated SA Dyna Beads incubated with C1q
FcγRIIA (human) [3] = biological target: FcγRIIA (human) (UniProt P12318); assay: SPR Biacore 8K; IgG captured on biotinylated CD3 peptide SA chip; 1 µM FcγRIIA, pH 7.4
FcγRI (human) [4] = biological target: FcγRI (human) (UniProt P12314); assay: SPR Biacore 8K; IgG captured on biotinylated CD3 peptide SA chip; 100 nM FcγRI, pH 7.4
FcγRIIIA (human) = FcγRIIIA (human) (UniProt P08637); assay: SPR Biacore 8K; IgG captured on biotinylated CD3 peptide SA chip; 1 µM FcγRIIIA, pH 7.4
FcγRI (human) [5] = biological target: FcγRI (human) (UniProt P12314); assay: SPR Biacore 8K, response vs WT
FcγRIIA (human) [6] = biological target: FcγRIIA (human) (UniProt P12318); assay: SPR Biacore 8K, response vs WT
CD3 = assay: BLI ForteBio; IgG on AHQ sensor, 100 nM antigen, 1:1 model

Chain of UniProt P08637 (P08637 17-208 limits assumed): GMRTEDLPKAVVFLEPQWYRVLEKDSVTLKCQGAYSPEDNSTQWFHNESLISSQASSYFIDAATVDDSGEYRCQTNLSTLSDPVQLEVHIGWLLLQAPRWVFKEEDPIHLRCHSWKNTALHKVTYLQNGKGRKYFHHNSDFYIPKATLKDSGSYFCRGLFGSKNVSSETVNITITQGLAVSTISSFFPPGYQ
Chain of UniProt P12314 (P12314 16-288 limits assumed): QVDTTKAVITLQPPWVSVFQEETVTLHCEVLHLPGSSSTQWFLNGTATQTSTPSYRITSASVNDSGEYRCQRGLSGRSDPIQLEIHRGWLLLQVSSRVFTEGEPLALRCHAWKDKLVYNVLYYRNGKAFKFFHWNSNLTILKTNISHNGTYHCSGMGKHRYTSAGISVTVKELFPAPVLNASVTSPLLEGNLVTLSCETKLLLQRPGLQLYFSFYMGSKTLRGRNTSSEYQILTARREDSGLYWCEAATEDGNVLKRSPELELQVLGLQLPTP
Chain of UniProt P55899 (P55899 24-297 limits assumed, chain 1 of 2): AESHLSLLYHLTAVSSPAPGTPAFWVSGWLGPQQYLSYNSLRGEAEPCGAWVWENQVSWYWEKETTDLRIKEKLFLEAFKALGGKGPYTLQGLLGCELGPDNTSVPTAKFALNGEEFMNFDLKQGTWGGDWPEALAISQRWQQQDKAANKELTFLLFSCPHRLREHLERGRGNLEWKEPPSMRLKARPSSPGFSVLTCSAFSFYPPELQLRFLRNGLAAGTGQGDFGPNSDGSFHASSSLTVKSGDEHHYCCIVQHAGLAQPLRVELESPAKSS
Chain of UniProt P55899 (P61769 21-119 limits assumed, chain 2 of 2, further chain): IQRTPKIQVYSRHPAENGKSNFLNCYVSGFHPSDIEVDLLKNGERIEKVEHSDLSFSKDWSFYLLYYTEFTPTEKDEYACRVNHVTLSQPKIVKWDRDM
Chain of UniProt P02745 (P02745 23-245 limits assumed, chain 1 of 3): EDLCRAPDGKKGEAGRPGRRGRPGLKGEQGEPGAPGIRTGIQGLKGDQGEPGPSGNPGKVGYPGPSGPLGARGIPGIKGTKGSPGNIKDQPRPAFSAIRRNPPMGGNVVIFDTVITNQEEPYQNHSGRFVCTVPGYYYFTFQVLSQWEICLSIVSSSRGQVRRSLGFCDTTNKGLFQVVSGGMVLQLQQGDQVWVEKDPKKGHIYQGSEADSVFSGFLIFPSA
Chain of UniProt P02745 (P02746 28-253 limits assumed, chain 2 of 3, further chain): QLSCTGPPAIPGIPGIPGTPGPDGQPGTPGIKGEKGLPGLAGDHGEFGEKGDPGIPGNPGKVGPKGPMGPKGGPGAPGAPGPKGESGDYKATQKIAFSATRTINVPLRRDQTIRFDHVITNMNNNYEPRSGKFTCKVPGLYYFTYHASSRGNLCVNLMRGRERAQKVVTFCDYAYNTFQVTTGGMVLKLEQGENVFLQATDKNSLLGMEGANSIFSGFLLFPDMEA
Chain of UniProt P02745 (P02747 29-245 limits assumed, chain 3 of 3, further chain): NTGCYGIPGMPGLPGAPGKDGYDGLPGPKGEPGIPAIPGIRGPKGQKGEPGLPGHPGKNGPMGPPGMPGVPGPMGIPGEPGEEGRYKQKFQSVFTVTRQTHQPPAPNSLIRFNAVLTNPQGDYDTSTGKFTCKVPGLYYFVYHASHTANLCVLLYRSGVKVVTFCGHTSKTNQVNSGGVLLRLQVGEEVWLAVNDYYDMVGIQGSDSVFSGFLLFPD
Chain of UniProt P12318 (P12318 36-218 limits assumed): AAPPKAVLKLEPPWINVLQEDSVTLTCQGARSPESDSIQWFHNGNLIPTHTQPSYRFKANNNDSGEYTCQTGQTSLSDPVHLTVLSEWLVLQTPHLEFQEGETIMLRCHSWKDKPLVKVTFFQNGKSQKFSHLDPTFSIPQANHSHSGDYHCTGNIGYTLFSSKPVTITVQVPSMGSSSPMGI

Substance | late association response (RU) (FcRn) | late association response (RU) (C1q [1]) | THP-1 Binding (MFI) (FcγR on THP-1 cells) | C1q Binding (MFI) (C1q [2]) | late association response (RU) (FcγRIIA (human) [3]) | late association response (RU) (FcγRI (human) [4]) | late association response (RU) (FcγRIIIA (human)) | % reduction of binding compared to WT (FcγRI (human) [5]) | % reduction of binding compared to WT (FcγRIIA (human) [6]) | Kd (CD3)
LALA variant of the CD3 antibody (WT engineered to contain L234A and L235A) (from UniProt P01857 1-330) | 44 RU | -13.9 RU | 5270 MFI | 1980 MFI | 0.1 RU | 23.5 RU | 0.6 RU | – | – | –
LALA-PA variant of the CD3 antibody (WT engineered to contain L234A and L235A and P329A) (from UniProt P01857 1-330) | 45.1 RU | -3.3 RU | 169 MFI | 621 MFI | -0.1 RU | – | -0.5 RU | > 95% and 97.6% | > 95% and 100% | 3.9 nM
LALA-PG variant of the CD3 antibody (WT engineered to contain L234A and L235A and P329G) (from UniProt P01857 1-330) | 44.5 RU | -25.1 RU | 146 MFI | 676 MFI | -0.1 RU | 2 RU | -0.3 RU | – | – | –
LALE variant of the CD3 antibody (WT engineered to contain L234A and L235E) (from UniProt P01857 1-330) | 38.9 RU | -27.3 RU | 5300 MFI | 1790 MFI | 0.1 RU | – | 0.4 RU | – | – | –
LALE-PA variant of the CD3 antibody (WT engineered to contain L234A and L235E and P329A) (from UniProt P01857 1-330) | 38.1 RU | -23.3 RU | 124 MFI | 660 MFI | -0.1 RU | 0.8 RU | -0.1 RU | – | – | –
LALE-PG variant of the CD3 antibody (WT engineered to contain L234A and L235E and P329G) (from UniProt P01857 1-330) | 37.3 RU | -6.5 RU | 124 MFI | 865 MFI | 0 RU | 0.8 RU | -0.3 RU | 99.1% | 100% | –

From US20210087271A1
